Article PMC3315798 (Molecular Biology of the Cell, 2012)

Target: T1, Fus2p-FLAG (full-length Fus2p, internally FLAG-epitope tagged at residue 104) (S. cerevisiae, UniProt Q05670 1-677)
T1 sequence (looked up): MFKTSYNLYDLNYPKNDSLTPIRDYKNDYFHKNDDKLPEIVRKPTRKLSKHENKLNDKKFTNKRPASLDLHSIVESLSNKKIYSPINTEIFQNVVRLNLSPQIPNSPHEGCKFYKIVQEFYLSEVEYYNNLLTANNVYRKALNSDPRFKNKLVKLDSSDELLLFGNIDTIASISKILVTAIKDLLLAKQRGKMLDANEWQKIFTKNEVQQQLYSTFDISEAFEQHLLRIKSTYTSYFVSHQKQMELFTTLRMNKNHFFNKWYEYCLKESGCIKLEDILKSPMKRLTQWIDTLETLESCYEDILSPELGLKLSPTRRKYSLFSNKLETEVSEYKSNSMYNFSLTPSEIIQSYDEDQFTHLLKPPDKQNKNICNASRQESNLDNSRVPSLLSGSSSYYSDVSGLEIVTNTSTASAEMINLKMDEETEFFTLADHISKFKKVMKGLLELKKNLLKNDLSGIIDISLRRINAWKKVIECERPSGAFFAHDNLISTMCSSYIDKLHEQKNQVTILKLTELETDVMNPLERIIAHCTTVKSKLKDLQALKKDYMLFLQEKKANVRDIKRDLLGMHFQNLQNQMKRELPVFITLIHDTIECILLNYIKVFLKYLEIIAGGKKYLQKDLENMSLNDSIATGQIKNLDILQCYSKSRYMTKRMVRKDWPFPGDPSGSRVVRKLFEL
Assay: co-IP

B1: GST-Cdc42p (Q61L, D122A) (natural protein)
chain: not shown
% binding relative to wild-type Cdc42p (so in the source): 4%

B2: GST-Cdc42p-Q61L (GTP-locked mutant) (natural protein)
chain: not shown
fold level bound compared with Cdc42p-T17N or wild type: ~20 fold

B3: GST-Cdc42p (V36M, Q61L) (natural protein)
chain: not shown
% binding relative to wild-type Cdc42p (so in the source): 7%
